Changes are numbered by the printed parent chain. Names may count otherwise. “Also recorded” adds a separate entry of the source.
B1: dynK44A: dominant-negative dynamin mutant that cannot bind GTP (protein, UniProt Q05193 1-864, looked up, variant K44A)
Dynamin-1: MGNRGMEDLIPLVNRLQDAFSAIGQNADLDLPQIAVVGGQSAGASSVLENFVGRDFLPRGSGIVTRRPLVLQLVNATTEYAEFLHCKGKKFTDFEEVRLEIEAETDRVTGTNKGISPVPINLRVYSPHVLNLTLVDLPGMTKVPVGDQPPDIEFQIRDMLMQFVTKENCLILAVSPANSDLANSDALKVAKEVDPQGQRTIGVITKLDLMDEGTDARDVLENKLLPLRRGYIGVVNRSQKDIDGKKDITAALAAERKFFLSHPSYRHLADRMGTPYLQKVLNQQLTNHIRDTLPGLRNKLQSQLLSIEKEVEEYKNFRPDDPARKTKALLQMVQQFAVDFEKRIEGSGDQIDTYELSGGARINRIFHERFPFELVKMEFDEKELRREISYAIKNIHGIRTGLFTPDMAFETIVKKQVKKIREPCLKCVDMVISELISTVRQCTKKLQQYPRLREEMERIVTTHIREREGRTKEQVMLLIDIELAYMNTNHEDFIGFANAQQRSNQMNKKKTSGNQDEILVIRKGWLTINNIGIMKGGSKEYWFVLTAENLSWYKDDEEKEKKYMLSVDNLKLRDVEKGFMSSKHIFALFNTEQRNVYKDYRQLELACETQEEVDSWKASFLRAGVYPERVGDKEKASETEENGSDSFMHSMDPQLERQVETIRNLVDSYMAIVNKTVRDLMPKTIMHLMINNTKEFIFSELLANLYSCGDQNTLMEESAEQAQRRDEMLRMYHALKEALSIIGDINTTTVSTPMPPPVDDSWLQVQSVPAGRRSPTSSPTPQRRAPAVPPARPGSRGPAPGPPPAGSALGGAPPVPSRPGASPDPFGPPPQVPSRPNRAPPGVPSRSGQASPSRPESPRPPFDL
B2: dynK694A: dominant activator dynamin mutant impaired in self-assembly (protein)
chain: B1 Dynamin-1 with A44K, K694A
B3: dynR725A: dynamin mutant (SEQ ID NO.4) with impaired GTP hydrolysis capacity (protein, listed as Homo sapiens)
chain: B1 Dynamin-1 with A44K, R725A
B4: dynL356Q, G358V: dynamin mutant (SEQ ID NO.3) not recognized by cathepsin L; ELSGGA mutated to EQSVGA (protein, listed as Homo sapiens)
chain: B1 Dynamin-1 with A44K, L356Q, G358V

Experiments:
Assay type in all cases: cell-based, mouse
[1] = tested on: podocytes; assay: Podocyte motility, modified Boyden chamber assay; conditions: for podocyte motility, in words: adenoviral overexpression
From the text: (§1) This study examined the role of dynamin in actin dynamics of podocytes. An adenoviral expression system was utilized to obtain expression of various dynamin mutants with more than 90% infection efficiency in cultured differentiated mouse podocytes and analyzed the organization of the actin cytoskeleton, their migratory and endocytotic behavior (FIG. 1). […] This type of actin rearrangement in cultured podocytes is resembling actin rearrangement in damaged podocytes during proteinuria in situ (Smoyer and Mundel, 1998). […] Thus, the consequence on actin dynamics in podocytes was examined when dynamin is hyperactive by expressing known dominant activators, dynK694A and dynR725A (SEQ ID NO.4). Both mutants are predicted to live longer in the GTP-bound form. […] To further examine this surprising phenotype in a biological context, motility assays were performed next using a modified Boyden Chamber assay.
Podocyte migration was analyzed using a 12-well chemotaxis chamber (Neuro Probe) according to the manufacturer's protocol. In brief, differentiated podocytes were treated with 50 μg/ml of LPS or PAN for 24 h and then harvested for the migration assay. Bottom plates were coated with type-I collagen, while upper plates were loaded with equal number of cells (5×10^4) suspended in medium. The chamber was incubated at 37° C. for 4 h before unassembled. The membrane was then taken out, processed and finally stained with diamidino phenylindole (DAPI) (Vector). The average number of migrated cells was counted in four fields in six independent experiments.
(§2) Podocytes were grown under non-permissive conditions to 70% confluence. Cells were washed twice with 1×PBS and infected with 1.2 ml of serum-free DMEM media containing 100 μl transactivator virus, 100 μl virus expressing dyn1 or dyn2. After 2 h of infection at 37° C., media containing virus was replaced with full DMEM. If cells were treated with LPS or PAN, 50 μg/ml of LPS or 50 μg/ml PAN was added at this point. 18-24 h post-infection, cells were detached using trypsin and processed either for subcellular fractionation or tested in the motility assays as described in (Reiser et al., J Biol Chem 279, 34827-34832 (2004)). When stated, 20 μM of Z-FF-FMK CatL specific inhibitor (Calbiochem, San Diego, Calif.) was added simultaneously with addition of LPS.

[2] = tested on: podocytes; assay: Actin stress fiber staining in cultured podocytes; conditions: for actin stress fibers, in words: overexpression in cultured podocytes
From the text: as §1
Since podocyte FP effacement is primarily driven by the rearrangement of the actin cytoskeleton (Asanuma et al., 2006), actin morphology was examined in cultured podocytes expressing different dynamin mutants. Podocytes were infected with various dynamin constructs using an adenoviral expression system that enables greater than 90% efficiency of infection. The experiments were performed using dyn1 (FIG. 22) as well as dyn2, with identical results. […] Thus, treatments which abolish actin stress fibers in cultured podocytes cause proteinuria in mice. […] Consistent with this notion, the deleterious effects of LPS (which reduces stress fibers) on kidney function were ameliorated by expression of dynR725A (which induces stress fibers).
as §2

[3] = tested on: podocytes; assay: Rhodamine-transferrin uptake (endocytosis) in podocytes; conditions: overexpression in podocytes
Experimental: Since dynamin is known to play a major role in regulation of clathrin-mediated endocytosis, it appeared possible that the observed actin phenotypes as described above were indirect consequence of changes in endocytosis. […] While LPS treatment of cells overexpressing dynWT had no effect on endocytosis of rhodamine-transferrin (FIG. 1D), it did induce cell motility and changes in actin cytoskeleton.
Conditionally immortalized mouse podocyte cell lines were grown as described previously (Mundel et al., Exp Cell Res 236; 248-258; (1997)). Dynamin antibodies: Anti-dynamin (hudy 1) monoclonal antibody was purchased from Upstate Technology (Lake Placid, N.Y.); mouse anti-dyn1 monoclonal antibody (MAB 5402) was from Chemicon (Temecula, Calif.); mouse anti-dyn1 monoclonal antibody (VAM-SVO41) was from StressGene (Victoria, Canada). The rabbit antiserum against mouse CatL was used as described (Ishidoh and Kominami, 1994). For immunogold and immunocytochemistry analysis of CatL, we used a rabbit polyclonal antibody against CatL as described before (Ahn et al., Traffic 3, 147-159 (2002)). CatL −/− fibroblasts were maintained as described previously (Hsieh et al., J Immunol 168, 2618-2625 (2002)). Stable CatL knock-down cell lines were generated with a vector-based siRNA directed against CatL (target sequence 5′-GTGGACTGTTCTCACGCT-3; SEQ ID NO.32). Quantitative PCR was performed on a Applied Biosystems 7300 Real-Time PCR System. Fold-expression changes were calculated using the comparative CT method for relative quantitation with the equation 2^−ΔΔCT. Protein expression levels for dynamin and CatL were calculated using densitometric analysis with Kodak imaging software. Statistical significance was assessed with the unpaired t-test with Welch's correction. Transfections with CatL constructs were performed using Lipofectamine 2000 (Invitrogen) following manufacturer's instructions. Immunocytochemical analysis of cultured podocytes was done as described (Reiser et al., J Biol Chem 279, 34827-34832 (2004)). Immunoperoxidase labeling of human tissue was done on formalin fixed kidney biopsies embedded in paraffin. Transmission electron microscopy (TEM) and immunoelectron microscopy (IEM) were performed as described (Regele et al., J Am Soc Nephrol 11, 403-412 (2000)). Subcellular fractionation of cultured cells was performed as described (Damke et al., J Cell Biol 127, 915-934 (1994)). Internalization of rhodamine-transferrin (R-Tfn) was performed using 20 μg/ml R-Tfn in PBS containing 1 mM CaCl2, 1 mM MgCl2, 5 mM glucose, and 0.2% BSA for 10 min at 37° C.

Molecule | podocyte motility, in words [1] | actin stress fibers, in words [2] | transferrin uptake (endocytosis), in words [3] | LPS-induced increase in podocyte motility, in words ([1]; LPS-treated podocytes) | loss of stress fibers under LPS or PAN, in words ([2]; LPS and PAN treatment)
dynWT: wild type dynamin overexpressed by adenovirus or delivered as dynamin 1 cDNA | did not change podocyte motility | did not dramatically alter stress fiber pattern; also recorded: did not significantly alter the F-actin staining pattern | did not enhance the overall transferring uptake | – | –
B1 | dramatically increased cell motility | loss of stress fibers; also recorded: abolished stress fibers | completely inhibited transferring uptake | – | –
B2 | did not change podocyte motility | did not dramatically change actin stress fibers | lead to increase in transferring uptake | – | –
B3 | significantly decreased podocyte motility; also recorded: decreasing motility | significantly induced stress fibers formation; also recorded: decreasing cortical actin and inducing stress fibers | exhibited the wild-type levels of endocytosis | blocked the LPS-induced increase in podocyte motility | prevented the loss of actin stress fibers; also recorded: inhibited the ability of LPS to reduce stress fibers
B4 | – | did not significantly alter the F-actin staining pattern | – | – | –

Source: patent US9144594B2, “Cathepsin L mediated diseases and associated methods and products” (University of Miami, priority 2005, dated 2015)
